Results taken from patent US20200024330A1.

Experiments:
Assay in all cases: cell-based or functional assay
[1] = target: HIV-1 Env of isolate MGRM-AE-002 (pseudovirus) (HIV-1)
[2] = target: HIV-1 Env of isolate MGRM-AE-006 (pseudovirus) (HIV-1)
[3] = target: HIV-1 Env of isolate MG RM-A-011 (pseudovirus) (HIV-1)
[4] = target: HIV-1 Env of isolate MGRM-D-003 (subtype D), on pseudovirus (HIV-1)
[5] = target: HIV-1 Env of isolate MG RM-A-008 (pseudovirus) (HIV-1)
[6] = target: HIV-1 Env of isolate VLGCA1 (pseudovirus) (HIV-1)
[7] = target: HIV-1 Env of isolate MGRM-AE-001 (pseudovirus) (HIV-1)
[8] = target: HIV-1 Env of isolate 6535.3 (HIV-1)
[9] = target: HIV-1 Env of isolate 92WR021 (pseudovirus) (HIV-1)
[10] = target: HIV-1 Env of isolate MGRM-AE-005 (pseudovirus) (HIV-1)
[11] = target: HIV-1 Env of isolate 98CN009 (subtype CRF07_BC), on pseudovirus (HIV-1)
[12] = target: HIV-1 Env of isolate MGRM-D-008 (subtype D), on pseudovirus (HIV-1)
[13] = target: HIV-1 Env of isolate 93UG077 (pseudovirus) (HIV-1)
[14] = target: HIV-1 Env of isolate MGRM-Chronic-B-002 (HIV-1)
[15] = target: HIV-1 Env of isolate MGRM-D-004 (subtype D), on pseudovirus (HIV-1)
[16] = target: HIV-1 Env of isolate MGRM-Chronic-B-001 (HIV-1)
[17] = target: HIV-1 Env of isolate MGRM-AE-003 (pseudovirus) (HIV-1)
[18] = target: HIV-1 Env of isolate 93TH305 (HIV-1)
[19] = target: HIV-1 Env of isolate MG RM-A-009 (pseudovirus) (HIV-1)
[20] = target: HIV-1 Env of isolate APV_17 (HIV-1)
[21] = target: HIV-1 Env of isolate 92UG001 (subtype D), on pseudovirus (HIV-1)
[22] = target: HIV-1 Env of isolate MG RM-A-010 (pseudovirus) (HIV-1)
[23] = target: HIV-1 Env of isolate MGRM-Chronic-B-008 (HIV-1)
[24] = target: HIV-1 Env of isolate MGRM-D-005 (subtype D), on pseudovirus (HIV-1)
[25] = target: HIV-1 Env of isolate CMU02 (pseudovirus) (HIV-1)
[26] = target: HIV-1 Env of isolate 94UG103 (pseudovirus) (HIV-1)
[27] = target: HIV-1 Env of isolate MG RM-A-005 (pseudovirus) (HIV-1)
[28] = target: HIV-1 Env of isolate APV_13 (HIV-1)
[29] = target: HIV-1 Env of isolate 92UG031 (pseudovirus) (HIV-1)
[30] = target: HIV-1 Env of isolate APV_6 (HIV-1)
[31] = target: HIV-1 Env of isolate 92UG024 (subtype D), on pseudovirus (HIV-1)
[32] = target: HIV-1 Env of isolate 92WR026 (pseudovirus) (HIV-1)
[33] = target: HIV-1 92BR020 envelope glycoprotein (Env) on pseudovirus (HIV-1)
[34] = target: HIV-1 Env of isolate 98CN006 (subtype CRF08 BC), on pseudovirus (HIV-1)
[35] = target: HIV-1 Env of isolate MG RM-A-014 (pseudovirus) (HIV-1)
[36] = target: HIV-1 Env of isolate MG RM-A-013 (pseudovirus) (HIV-1)
[37] = target: HIV-1 Env of isolate 92UG005 (subtype D), on pseudovirus (HIV-1)
[38] = target: HIV-1 Env of isolate MGRM-D-001 (subtype D), on pseudovirus (HIV-1)
[39] = target: HIV-1 Env of isolate 92WR024 (pseudovirus) (HIV-1)
[40] = target: HIV-1 Env of isolate MG RM-A-006 (pseudovirus) (HIV-1)
[41] = target: HIV-1 Env of isolate 92RW009 (clade A), on pseudovirus (HIV-1)
[42] = target: HIV-1 Env of isolate JRFL (HIV-1)
[43] = target: HIV-1 Env of isolate 93WR029 (pseudovirus) (HIV-1)
[44] = target: HIV-1 Env of isolate 92WR020 (pseudovirus) (HIV-1)
[45] = target: HIV-1 Env of isolate 92UG114 (subtype D), on pseudovirus (HIV-1)
[46] = target: HIV-1 Env of isolate 92RW008 (clade A), on pseudovirus (HIV-1)
[47] = target: HIV-1 Env of isolate 92TH021 (pseudovirus) (HIV-1)
[48] = target: HIV-1 Env of isolate CAAN.A2 (HIV-1)
[49] = target: HIV-1 Env of isolate MGRM-Chronic-B-004 (HIV-1)
[50] = target: HIV-1 Env of isolate 92BR020 (HIV-1)
[51] = target: HIV-1 Env of isolate MGRM-AE-004 (pseudovirus) (HIV-1)
[52] = target: HIV-1 Env of isolate MG RM-A-012 (pseudovirus) (HIV-1)
[53] = target: HIV-1 Env of isolate 92UG037 (pseudovirus) (HIV-1)
[54] = target: HIV-1 Env of isolate 94 KE 105 (pseudovirus) (HIV-1)
[55] = target: HIV-1 92RW020 envelope glycoprotein (Env) on pseudovirus (HIV-1)
[56] = target: HIV-1 Env of isolate MG RM-A-007 (pseudovirus) (HIV-1)
[57] = target: HIV-1 Env of isolate MGRM-Chronic-B-003 (HIV-1)
[58] = target: HIV-1 Env of isolate MGRM-D-002 (subtype D), on pseudovirus (HIV-1)
[59] = target: HIV-1 Env of isolate 92UG046 (subtype D), on pseudovirus (HIV-1)

Chain of 4970_K22 (PGT-144) (antibody) (VH): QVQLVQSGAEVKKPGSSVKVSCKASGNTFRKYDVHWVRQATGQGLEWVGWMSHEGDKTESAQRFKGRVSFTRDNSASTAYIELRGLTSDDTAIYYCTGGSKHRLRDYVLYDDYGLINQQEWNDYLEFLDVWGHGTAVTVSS
Chain of 4970_K22 (PGT-144) (antibody) (VL): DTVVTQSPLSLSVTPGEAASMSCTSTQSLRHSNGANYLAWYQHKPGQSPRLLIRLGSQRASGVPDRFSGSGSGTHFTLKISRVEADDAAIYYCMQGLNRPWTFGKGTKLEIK

Substance: 4970_K22 (PGT-144) (antibody)
- IC50 (µg/mL), pseudovirus neutralization [1]: > 50 µg/mL
- IC50 (µg/mL), pseudovirus neutralization [2]: > 50 µg/mL
- IC50 (µg/mL), pseudovirus neutralization [3]: > 50 µg/mL
- IC50, pseudovirus neutralization [4]: > 50 µg/mL
- IC50 (µg/mL), pseudovirus neutralization [5]: > 50 µg/mL
- IC50 (µg/mL), pseudovirus neutralization [6]: > 50 µg/mL
- IC50 (µg/mL), pseudovirus neutralization [7]: > 50 µg/mL
- IC50 [8]: > 50 µg/mL
- IC50 (µg/mL), pseudovirus neutralization [9]: > 50 µg/mL
- IC50 (µg/mL), pseudovirus neutralization [10]: > 50 µg/mL
- IC50, pseudovirus neutralization [11]: > 50 µg/mL
- IC50, pseudovirus neutralization [12]: 9.85 µg/mL
- IC50 (µg/mL), pseudovirus neutralization [13]: > 50 µg/mL
- IC50 [14]: > 50 µg/mL
- IC50, pseudovirus neutralization [15]: > 50 µg/mL
- IC50 [16]: > 50 µg/mL
- IC50 (µg/mL), pseudovirus neutralization [17]: > 50 µg/mL
- IC50 [18]: > 50 µg/mL
- IC50 (µg/mL), pseudovirus neutralization [19]: 2.83 µg/mL
- IC50 [20]: 10.3 µg/mL
- IC50, pseudovirus neutralization [21]: > 50 µg/mL
- IC50 (µg/mL), pseudovirus neutralization [22]: 2.79 µg/mL
- IC50 [23]: > 50 µg/mL
- IC50, pseudovirus neutralization [24]: 14.8 µg/mL
- IC50 (µg/mL), pseudovirus neutralization [25]: > 50 µg/mL
- IC50 (µg/mL), pseudovirus neutralization [26]: > 50 µg/mL
- IC50 (µg/mL), pseudovirus neutralization [27]: 18.6 µg/mL
- IC50 [28]: > 50 µg/mL
- IC50 (µg/mL), pseudovirus neutralization [29]: 2.17 µg/mL
- IC50 [30]: > 50 µg/mL
- IC50, pseudovirus neutralization [31]: > 50 µg/mL
- IC50 (µg/mL), pseudovirus neutralization [32]: 32.7 µg/mL
- IC50 (ug/ml), neutralizing activity [33]: > 10 µg/mL
- IC50, pseudovirus neutralization [34]: > 50 µg/mL
- IC50 (µg/mL), pseudovirus neutralization [35]: > 50 µg/mL
- IC50 (µg/mL), pseudovirus neutralization [36]: > 50 µg/mL
- IC50, pseudovirus neutralization [37]: > 50 µg/mL
- IC50, pseudovirus neutralization [38]: > 50 µg/mL
- IC50 (µg/mL), pseudovirus neutralization [39]: 16.3 µg/mL
- IC50 (µg/mL), pseudovirus neutralization [40]: > 50 µg/mL
- IC50, single-round pseudovirus neutralization [41]: 0.893 µg/mL
- IC50 [42]: > 50 µg/mL
- IC50 (µg/mL), pseudovirus neutralization [43]: 4.39 µg/mL
- IC50 (µg/mL), pseudovirus neutralization [44]: > 50 µg/mL
- IC50, pseudovirus neutralization [45]: > 50 µg/mL
- IC50, single-round pseudovirus neutralization [46]: > 50 µg/mL
- IC50 (µg/mL), pseudovirus neutralization [47]: 0.052 µg/mL
- IC50 [48]: > 50 µg/mL
- IC50 [49]: 9.41 µg/mL
- IC50 [50]: 44 µg/mL
- IC50 (µg/mL), pseudovirus neutralization [51]: 0.104 µg/mL
- IC50 (µg/mL), pseudovirus neutralization [52]: > 50 µg/mL
- IC50 (µg/mL), pseudovirus neutralization [53]: 8.24 µg/mL
- IC50 (µg/mL), pseudovirus neutralization [54]: 0.29 µg/mL
- IC50 (ug/ml), neutralizing activity [55]: > 10 µg/mL
- IC50 (µg/mL), pseudovirus neutralization [56]: > 50 µg/mL
- IC50 [57]: 7.41 µg/mL
- IC50, pseudovirus neutralization [58]: > 50 µg/mL
- IC50, pseudovirus neutralization [59]: > 50 µg/mL
